The text below walks through data of patent US20250090639A1, “CONTROLLED-RELEASE CNP AGONISTS WITH LOW INITIAL NPR-B ACTIVITY” (priority 2016, published 2025).

Data set [1] addresses T1, recombinant human NEP (Homo sapiens, UniProt P08473).
T1 construct: purchased Enzo Life Sciences GmbH, Lörrach, Germany
The data set is described as follows: Digest of CNP variants by Neutral Endopeptidase in vitro. The settings on record: 100 μg CNP equivalents/mL, pH 7.4, 37° C., up to 4 days, normalized to mean CNP-34 or CNP-38 half life. In kind it is in vitro ADME. An excerpt:
Samples were taken at different time intervals. […] The resulting reaction products were assigned using HPLC-MS.

Data set [2] is described as follows: Evaluation of cardiovascular effects in the conscious telemetered mouse (subcutaneous administration). The settings on record: 800 μg CNP-38 (eq)/kg sc. The class given is in vivo, Male Crl: CD1(1CR) mice. On the procedure:
Male Crl: CD1(1CR) mice (age range 8-13 weeks and body weight range 27.3-35.6 g at start of dosing) were surgically implanted with a TA11PA-C10 telemetry transmitter (Data Sciences International (DSI)) in the carotid artery. The body of the transmitter was placed subcutaneously in the lateral flank of the mouse. The mice were dosed subcutaneously in a latin square crossover design with at least 72 hours between dosing occasions. […] At least four mice were included at each dose level. Blood pressure (systolic (SAP), diastolic (DAP) and mean (MAP) and heart rate (HR, derived from blood pressure), were recorded using a digital data capture system linked with a DSITM Ponemah data acquisition and analysis system. The capture system allowed recording of the cardiovascular parameters whilst the mice were in individual cages. On the day of each test session the animals were weighed and a predose recording was performed for at least 60 min prior to dosing. Each mouse was returned to the home cage and the cardiovascular parameters were recorded for approximately 48 hours postdose. Blood pressure and HR were reported at the following time points: −30, −20, −10, 5, 15 and 30 min postdose and 1, 2, 6, 12, 18, 24, 30, 36, 42 and 48 hours postdose. Each time point was presented as the average value of five minute's recording prior to the time point. […]

Data set [3] in a line: Pharmacokinetic profile of conjugate 11i after subcutaneous single-dose administration to cynomolgus monkeys. The class given is in vivo. The settings on record: single s.c. 40 μg CNP-38 eq/kg. On the procedure:
As internal standard deuterated CNP-38 conjugate was used.
After 3 hours incubation at 37° C. […] 10 μL were injected into the UHPLC-MS system.

T1 sequence (P08473 whole entry): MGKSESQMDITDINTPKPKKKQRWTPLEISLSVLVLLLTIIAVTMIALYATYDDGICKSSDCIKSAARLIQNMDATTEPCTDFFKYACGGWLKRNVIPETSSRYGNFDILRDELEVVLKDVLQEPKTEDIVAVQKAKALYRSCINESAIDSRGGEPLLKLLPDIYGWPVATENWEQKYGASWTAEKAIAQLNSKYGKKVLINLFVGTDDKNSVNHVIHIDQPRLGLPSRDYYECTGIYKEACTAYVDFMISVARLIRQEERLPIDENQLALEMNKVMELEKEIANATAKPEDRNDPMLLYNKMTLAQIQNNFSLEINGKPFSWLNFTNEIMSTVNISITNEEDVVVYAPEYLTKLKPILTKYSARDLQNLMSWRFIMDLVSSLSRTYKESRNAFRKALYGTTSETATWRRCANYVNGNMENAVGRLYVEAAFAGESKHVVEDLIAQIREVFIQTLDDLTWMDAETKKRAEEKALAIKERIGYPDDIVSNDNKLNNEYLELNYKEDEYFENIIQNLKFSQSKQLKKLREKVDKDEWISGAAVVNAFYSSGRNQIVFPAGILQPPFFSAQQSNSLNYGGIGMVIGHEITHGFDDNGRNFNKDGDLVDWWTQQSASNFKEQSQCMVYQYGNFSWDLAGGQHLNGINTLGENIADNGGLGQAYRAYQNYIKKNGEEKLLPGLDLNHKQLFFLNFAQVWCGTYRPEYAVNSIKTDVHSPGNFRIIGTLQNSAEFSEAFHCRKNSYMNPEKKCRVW

Turning to “Permanent Lys22 CNP-34 PEG 5 kDa Conjugate [Conjugate 18e]”, the half life norm. in data set [1] is 38.87 h.
With “Permanent N-Terminal CNP-34 PEG 5 kDa Conjugate [Conjugate 14e]”, the half life norm. entry in data set [1] is recorded as “Almost no proteolysis”.
“Permanent N-Terminal CNP-38 PEG 5 kDa Conjugate [Conjugate 15e]”: the half life norm. result in data set [1] is reported as “Almost no proteolysis”.
For “Permanent Lys16 CNP-34 PEG 5 kDa Conjugate [Conjugate 17e]”, the half life norm. in data set [1] stood at 54.23 h.
Consider `CC[C@H](C)[C@@H]1NC(=O)[C@H](CCCNC(=N)N)NC(=O)[C@H](CC(=O)O)NC(=O)[C@H](CC(C)C)NC(=O)[C@H](CCCCN)NC(=O)[C@H](CC(C)C)NC(=O)CNC(=O)[C@H](Cc2ccccc2)NC(=O)[C@@H](NC(=O)CNC(=O)[C@H](CCCCN)NC(=O)[C@H](CO)NC(=O)[C@H](CC(C)C)NC(=O)CNC(=O)[C@H](CCCCN)NC(=O)[C@H](CCCCN)NC(=O)[C@H](CC(N)=O)NC(=O)[C@H](C)NC(=O)CNC(=O)[C@H](CCCCN)NC(=O)[C@H](Cc2ccc(O)cc2)NC(=O)[C@H](CCCCN)NC(=O)[C@H](CCCNC(=N)N)NC(=O)[C@H](C)NC(=O)[C@H](CC(N)=O)NC(=O)[C@@H]2CCCN2C(=O)[C@H](Cc2c[nH]cn2)NC(=O)[C@H](CCC(=O)O)NC(=O)[C@H](CCC(N)=O)NC(=O)[C@@H](N)CC(C)C)CSSC[C@@H](C(=O)O)NC(=O)CNC(=O)[C@H](CC(C)C)NC(=O)CNC(=O)[C@H](CO)NC(=O)[C@H](CCSC)NC(=O)[C@H](CO)NC(=O)CNC1=O` [CNP-38, reference compound], for which the “effect on HR” value in data set [2] is on record as “not impacted”. In data set [2] (5, 15 and 30 min post dose), the “effect on MAP / blood pressure” value is “significant decrease in MAP”.
For the compound “Permanent Lys26 CNP-38 PEG 5 kDa Conjugate [Conjugate 19e]”, in data set [1], the half life norm. stood at 62.76 h.
As to “Reversible Lys26 CNP-38 PEG4×10 kDa Conjugate [Conjugate 11i]”, the tolerability entry in data set [3] is on record as “well tolerated”.
Consider “Permanent Lys26 CNP-38 PEG4×10 kDa Conjugate [Conjugate 12g]”, for which the half life norm. entry in data set [1] is reported as “Almost no proteolysis”.
